Legend:
[1] = target: T1, recombinant CD3 proteins (UniProt P07766 23-126); assay: Octet BLI, recombinant CD3; Full R^2 0.985
T1 construct: elsewhere it uses human CD3 E/D and E/G heterodimers

[2] = target: T1, recombinant CD3 proteins; assay: Octet BLI, recombinant CD3; Full R^2 0.814*
[3] = target: T1, recombinant CD3 proteins; assay: Octet BLI, recombinant CD3; Full R^2 0.557*

T1 sequence (P07766 23-126): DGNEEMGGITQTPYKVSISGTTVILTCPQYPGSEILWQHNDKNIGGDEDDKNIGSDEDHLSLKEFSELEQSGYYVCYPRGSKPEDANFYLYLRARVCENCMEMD

B1: CD3 × CD33-BspAb120 (bispecific antibody)
chain 1: NFMLTQPHSVSESPGKTVAISCTRSSGSIASNYVQWYQQRPGSSPTAVIYEDNQRPSGVPDRFSGSIDSSSNSAFLTISGLKTEDEADYYCQSYDSSNRVFGCGTKLTVLGGGGSGGGGSGGGGSGGGGSEVQLVESGGGLVKPGGSLRLSCAASGFTFSSYSMNWVRQAPGKCLEWVSSISRSSGYIFYADSVKGRFTISRDNAKNSLYLQMNSLRAEDTAVYYCVRERVGAGFDYWGQGTLVTVSSDKTHTCPPCPAPEFEGGPSVFLFPPKPKDTLMISRTPEVTCVVVDVSHEDPEVKFNWYVDGVEVHNAKTKPREEQYNSTYRVVSVLTVLHQDWLNGKEYKCKVSNKALPASIEKTISKAKGQPREPQVYTLPPCREEMTKNQVSLWCLVKGFYPSDIAVEWESNGQPENNYKTTPPVLDSDGSFFLYSKLTVDKSRWQQGNVFSCSVMHEALHNHYTQKSLSLSPGK
chain 2: EVQLVQSGAEVKKPGSSVKVSCKASGYTITDSNIHWVRQAPGQSLEWIGYIYPYNGGTDYNQKFKNRATLTVDNPTNTAYMELSSLRSEDTAFYYCVNGNPWLAYWGQGTLVTVSSASTKGPSVFPLAPSSKSTSGGTAALGCLVKDYFPEPVTVSWNSGALTSGVHTFPAVLQSSGLYSLSSVVTVPSSSLGTQTYICNVNHKPSNTKVDKRVEPKSCDKTHTCPPCPAPEFEGGPSVFLFPPKPKDTLMISRTPEVTCVVVDVSHEDPEVKFNWYVDGVEVHNAKTKPREEQYNSTYRVVSVLTVLHQDWLNGKEYKCKVSNKALPASIEKTISKAKGQPREPQVCTLPPSREEMTKNQVSLSCAVKGFYPSDIAVEWESNGQPENNYKTTPPVLDSDGSFFLVSKLTVDKSRWQQGNVFSCSVMHEALHNRFTQKSLSLSPGK
chain 3: DIQLTQSPSTLSASVGDRVTITCRASESLDNYGIRFLTWFQQKPGKAPKLLMYAASNQGSGVPSRFSGSGSGTEFTLTISSLQPDDFATYYCQQTKEVPWSFGQGTKVEVKRTVAAPSVFIFPPSDEQLKSGTASVVCLLNNFYPREAKVQWKVDNALQSGNSQESVTEQDSKDSTYSLSSTLTLSKADYEKHKVYACEVTHQGLSSPVTKSFNRGEC
[1]
  Kd: 69 nM
  koff: 0.0189 s⁻¹
  kon: 274000 M⁻¹ s⁻¹

B2: CD3 × CD33-BspAb121 (bispecific antibody)
chain 1: QTVVTQEPSLTVSPGGTVTLTCASSTGAVTSGYYPNWFQQKPGQAPRALIYSTSNKHSWTPARFSGSLLGGKAALTLSGVQPEDEAEYYCLLYYGGAYVFGCGTKVTVLGGGGSGGGGSGGGGSGGGGSEVQLVESGGGLVKPGGSLRLSCAASGFTFSSYSMNWVRQAPGKCLEWVSSISRSGTYIYYADSVKGRFTISRDNAKNSLYLQMNSLRAEDTAVYYCARERWELLYFDYWGQGTLVTVSSDKTHTCPPCPAPEFEGGPSVFLFPPKPKDTLMISRTPEVTCVVVDVSHEDPEVKFNWYVDGVEVHNAKTKPREEQYNSTYRVVSVLTVLHQDWLNGKEYKCKVSNKALPASIEKTISKAKGQPREPQVYTLPPCREEMTKNQVSLWCLVKGFYPSDIAVEWESNGQPENNYKTTPPVLDSDGSFFLYSKLTVDKSRWQQGNVFSCSVMHEALHNHYTQKSLSLSPGK
chain 2: EVQLVQSGAEVKKPGSSVKVSCKASGYTITDSNIHWVRQAPGQSLEWIGYIYPYNGGTDYNQKFKNRATLTVDNPTNTAYMELSSLRSEDTAFYYCVNGNPWLAYWGQGTLVTVSSASTKGPSVFPLAPSSKSTSGGTAALGCLVKDYFPEPVTVSWNSGALTSGVHTFPAVLQSSGLYSLSSVVTVPSSSLGTQTYICNVNHKPSNTKVDKRVEPKSCDKTHTCPPCPAPEFEGGPSVFLFPPKPKDTLMISRTPEVTCVVVDVSHEDPEVKFNWYVDGVEVHNAKTKPREEQYNSTYRVVSVLTVLHQDWLNGKEYKCKVSNKALPASIEKTISKAKGQPREPQVCTLPPSREEMTKNQVSLSCAVKGFYPSDIAVEWESNGQPENNYKTTPPVLDSDGSFFLVSKLTVDKSRWQQGNVFSCSVMHEALHNRFTQKSLSLSPGK
chain 3: DIQLTQSPSTLSASVGDRVTITCRASESLDNYGIRFLTWFQQKPGKAPKLLMYAASNQGSGVPSRFSGSGSGTEFTLTISSLQPDDFATYYCQQTKEVPWSFGQGTKVEVKRTVAAPSVFIFPPSDEQLKSGTASVVCLLNNFYPREAKVQWKVDNALQSGNSQESVTEQDSKDSTYSLSSTLTLSKADYEKHKVYACEVTHQGLSSPVTKSFNRGEC
[2]
  Kd: 1210 nM
  koff: 0.0216 s⁻¹
  kon: 17900 M⁻¹ s⁻¹

B3: CD3 × CD33-BspAb122 (bispecific antibody)
chain 1: QTVVTQEPSFSVSPGGTVTLTCGLSSGSVSTSYYPSWYQQTPGQAPRTLIYSTNTRSSGVPDRFSGSILGNKAALTITGAQADDESDYYCVLYMGSGIWVFGCGTKLTVLGGGGSGGGGSGGGGSGGGGSEVQLVESGGGLVKPGGSLRLSCAASGFTVSNYSMNWVRQAPGKCLEWVSSISRSSSYIYYADSVKGRFTISRDNAKNSLFLQMNSLRAEDTAVYYCARERWELLYFDYWGQGTLVTVSSDKTHTCPPCPAPEFEGGPSVFLFPPKPKDTLMISRTPEVTCVVVDVSHEDPEVKFNWYVDGVEVHNAKTKPREEQYNSTYRVVSVLTVLHQDWLNGKEYKCKVSNKALPASIEKTISKAKGQPREPQVYTLPPCREEMTKNQVSLWCLVKGFYPSDIAVEWESNGQPENNYKTTPPVLDSDGSFFLYSKLTVDKSRWQQGNVFSCSVMHEALHNHYTQKSLSLSPGK
chain 2: EVQLVQSGAEVKKPGSSVKVSCKASGYTITDSNIHWVRQAPGQSLEWIGYIYPYNGGTDYNQKFKNRATLTVDNPTNTAYMELSSLRSEDTAFYYCVNGNPWLAYWGQGTLVTVSSASTKGPSVFPLAPSSKSTSGGTAALGCLVKDYFPEPVTVSWNSGALTSGVHTFPAVLQSSGLYSLSSVVTVPSSSLGTQTYICNVNHKPSNTKVDKRVEPKSCDKTHTCPPCPAPEFEGGPSVFLFPPKPKDTLMISRTPEVTCVVVDVSHEDPEVKFNWYVDGVEVHNAKTKPREEQYNSTYRVVSVLTVLHQDWLNGKEYKCKVSNKALPASIEKTISKAKGQPREPQVCTLPPSREEMTKNQVSLSCAVKGFYPSDIAVEWESNGQPENNYKTTPPVLDSDGSFFLVSKLTVDKSRWQQGNVFSCSVMHEALHNRFTQKSLSLSPGK
chain 3: DIQLTQSPSTLSASVGDRVTITCRASESLDNYGIRFLTWFQQKPGKAPKLLMYAASNQGSGVPSRFSGSGSGTEFTLTISSLQPDDFATYYCQQTKEVPWSFGQGTKVEVKRTVAAPSVFIFPPSDEQLKSGTASVVCLLNNFYPREAKVQWKVDNALQSGNSQESVTEQDSKDSTYSLSSTLTLSKADYEKHKVYACEVTHQGLSSPVTKSFNRGEC
[3]
  Kd: < 0.001 nM
  koff: < 1e-07 s⁻¹
  kon: 15400 M⁻¹ s⁻¹

— patent US20260167721A1 (ABLEXIS, published 2026)
